The target in series [1] is T1, RFX1 (Homo sapiens, UniProt P22670 1-979).
T1 sequence: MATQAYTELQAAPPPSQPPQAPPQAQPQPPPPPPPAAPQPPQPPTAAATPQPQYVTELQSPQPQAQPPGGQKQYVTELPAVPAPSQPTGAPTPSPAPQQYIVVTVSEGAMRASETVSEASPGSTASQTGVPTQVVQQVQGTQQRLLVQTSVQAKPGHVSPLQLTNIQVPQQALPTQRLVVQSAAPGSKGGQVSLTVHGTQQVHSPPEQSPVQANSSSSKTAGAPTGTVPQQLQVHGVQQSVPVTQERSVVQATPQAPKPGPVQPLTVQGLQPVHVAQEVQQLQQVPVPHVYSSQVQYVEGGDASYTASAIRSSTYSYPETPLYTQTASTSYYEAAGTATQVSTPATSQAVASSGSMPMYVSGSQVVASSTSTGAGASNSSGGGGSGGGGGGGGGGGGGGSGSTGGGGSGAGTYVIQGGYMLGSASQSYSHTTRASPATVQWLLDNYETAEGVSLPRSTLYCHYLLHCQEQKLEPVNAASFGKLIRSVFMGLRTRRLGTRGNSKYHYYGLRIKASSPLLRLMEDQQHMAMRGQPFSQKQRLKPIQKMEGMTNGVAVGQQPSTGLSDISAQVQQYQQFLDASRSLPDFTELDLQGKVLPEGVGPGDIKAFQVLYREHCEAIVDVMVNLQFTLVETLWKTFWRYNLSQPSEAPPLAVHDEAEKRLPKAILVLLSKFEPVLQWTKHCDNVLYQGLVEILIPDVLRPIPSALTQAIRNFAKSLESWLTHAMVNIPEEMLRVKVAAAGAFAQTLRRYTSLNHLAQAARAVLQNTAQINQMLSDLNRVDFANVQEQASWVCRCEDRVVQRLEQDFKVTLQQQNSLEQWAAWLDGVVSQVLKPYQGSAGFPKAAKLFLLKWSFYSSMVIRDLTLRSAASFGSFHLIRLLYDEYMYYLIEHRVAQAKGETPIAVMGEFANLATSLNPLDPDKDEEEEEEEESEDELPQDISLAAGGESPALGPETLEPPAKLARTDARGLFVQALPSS
Description: EMSA; EMSA: 1x binding buffer from 10x (50 mM NaCl, 10 mM Tris-HCl pH 7.5, 2.5 mM MgCl2, 4% glycerol, 0.5 mM DTT), 0.05% NP40, poly(dI-dC), 20 ul, room temperature 1. The following applies: protein: ivt; tags: C-terminal myc in the source clone pCMV-RFX1; chain copies: 2; label: 32P end label (T4 kinase); blunt.

Series [2] addresses T1, RFX1. Briefly: EMSA; shifted to C2 position; favored over wild-type; EMSA: 1x binding buffer from 10x (50 mM NaCl, 10 mM Tris-HCl pH 7.5, 2.5 mM MgCl2, 4% glycerol, 0.5 mM DTT), 0.05% NP40, poly(dI-dC), 20 ul, room temperature 1. The following applies: protein: ivt; tags: C-terminal myc in the source clone pCMV-RFX1; chain copies: 2; label: 32P end label (T4 kinase); blunt.

B1: NS non-specific oligo (dsDNA)
DNA 1: GGAATTACGTGGCCACTCGAGGGAATTACG
DNA 2: CGTAATTCCCTCGAGTGGCCACGTAATTCC
For the molecule B1, in series [1], the binding result is “no binding”.

B2: A1613 mutant NRE probe (dsDNA)
DNA 1: GCACGTCGCATGGAAACCACCGTGAACGCC
DNA 2: GGCGTTCACGGTGGTTTCCATGCGACGTGC
B2: the binding result in series [2] is recorded as “binds”.

(Values after publication PMC3140978, “The G1613A Mutation in the HBV Genome Affects HBeAg Expression and Viral Replication through Altered Core Promoter Activity”.)
